Experimental data from patent publication US20260139049A1.
Read-outs that look alike come from different tables or passages of the source.

Columns and labels:
human CLDN6 (human) [1] = target: human CLDN6 (human) (UniProt P56747); test: FACS on HepG2 tumour cells, 5 µg/mL; target on the cells taken as CLDN6
human CLDN6 (human) [2] = target: human CLDN6 (human) (UniProt P56747); test: FACS on PA-1 tumour cells; target on the cells taken as CLDN6
human CLDN6 (human) [3] = target: human CLDN6 (human) (UniProt P56747); test: FACS on 293T-CLDN6 cells, 10 µg/mL
[4] = target: monkey CLDN6 (Cyno CLDN6) (monkey (Cyno)); test: FACS on CHO-K1-Cyno CLDN6 cells
human CLDN6 (human) [5] = target: human CLDN6 (human) (UniProt P56747); test: FACS on PA-1 tumour cells; target on the cells taken as CLDN6; remark: listed apart in the source
human CLDN9 (human) [6] = target: human CLDN9 (human) (UniProt O95484); test: FACS on 293T-CLDN9 cells, 10 µg/mL
Chain of human CLDN9 (human) (O95484 whole entry): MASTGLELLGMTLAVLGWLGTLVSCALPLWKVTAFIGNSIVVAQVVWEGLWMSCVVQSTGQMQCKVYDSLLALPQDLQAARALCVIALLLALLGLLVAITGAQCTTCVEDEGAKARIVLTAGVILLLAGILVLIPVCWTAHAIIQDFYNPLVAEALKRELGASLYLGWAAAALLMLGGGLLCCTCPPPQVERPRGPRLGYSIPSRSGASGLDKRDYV

human CLDN6 (human) [7] = target: human CLDN6 (human) (UniProt P56747); test: FACS on 293T-CLDN6 cells, 10 µg/mL; remark: listed apart in the source
human CLDN9 (human) [8] = target: human CLDN9 (human) (UniProt O95484); test: FACS on 293T-CLDN9 cells, 10 µg/mL; remark: listed apart in the source
human CLDN6 (human) [9] = target: human CLDN6 (human) (UniProt P56747); test: FACS on 293T-CLDN6 cells, 10 µg/mL; remark: listed apart in the source
mouse CLDN6 (mouse) [10] = target: mouse CLDN6 (mouse) (UniProt Q9Z262); test: FACS on CHO-K1-Mouse CLDN6 cells
Chain of mouse CLDN6 (mouse) (Q9Z262 whole entry): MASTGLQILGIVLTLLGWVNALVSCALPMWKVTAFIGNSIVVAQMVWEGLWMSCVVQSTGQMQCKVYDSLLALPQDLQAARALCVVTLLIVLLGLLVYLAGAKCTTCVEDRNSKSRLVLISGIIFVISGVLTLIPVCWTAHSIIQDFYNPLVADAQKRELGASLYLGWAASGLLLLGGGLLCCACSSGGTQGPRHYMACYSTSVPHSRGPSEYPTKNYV

human CLDN6 (human) [11] = target: human CLDN6 (human) (UniProt P56747); test: FACS on HEK293T-CLDN6 cells
human CLDN9 (human) [12] = target: human CLDN9 (human) (UniProt O95484); test: FACS on 293T-CLDN9 cells, 10 µg/mL; remark: listed apart in the source
human CLDN6 (human) [13] = target: human CLDN6 (human) (UniProt P56747); test: FACS on HepG2 tumour cells; target on the cells taken as CLDN6
human CLDN6 (human) [14] = target: human CLDN6 (human) (UniProt P56747); test: as above; remark: listed apart in the source
human CLDN3 (human) = human CLDN3 (human) (UniProt O15551); test: FACS on 293T-CLDN3 cells, 10 µg/mL
Chain of human CLDN3 (human) (O15551 whole entry): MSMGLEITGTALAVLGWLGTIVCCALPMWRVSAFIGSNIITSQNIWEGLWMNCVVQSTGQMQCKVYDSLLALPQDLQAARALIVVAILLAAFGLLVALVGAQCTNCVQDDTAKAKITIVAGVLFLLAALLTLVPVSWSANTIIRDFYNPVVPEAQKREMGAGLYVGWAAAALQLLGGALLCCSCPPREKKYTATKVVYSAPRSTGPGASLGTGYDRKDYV

human CLDN4 (human) = human CLDN4 (human) (UniProt O14493); test: FACS on 293T-CLDN4 cells, 10 µg/mL
human CLDN6 (human) [15] = target: human CLDN6 (human) (UniProt P56747); test: ratio of FACS Geom.Mean on 293T-CLDN6 over 293T-CLDN9, 10 µg/mL
mouse CLDN6 (mouse) [16] = target: mouse CLDN6 (mouse) (UniProt Q9Z262); test: FACS
mouse CLDN6 (mouse) [17] = target: mouse CLDN6 (mouse) (UniProt Q9Z262); test: FACS; FIG. 20

Chain of human CLDN6 (human) (P56747 whole entry): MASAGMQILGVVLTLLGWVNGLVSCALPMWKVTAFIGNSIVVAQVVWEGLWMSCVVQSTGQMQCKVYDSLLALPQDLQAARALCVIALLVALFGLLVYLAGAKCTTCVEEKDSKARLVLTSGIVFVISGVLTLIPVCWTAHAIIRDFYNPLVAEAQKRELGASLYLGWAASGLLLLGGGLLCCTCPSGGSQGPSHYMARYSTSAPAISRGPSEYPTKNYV

| Geom.Mean (human CLDN6 (human) [1]) | EC50 (human CLDN6 (human) [2]) | Geom.Mean (human CLDN6 (human) [3]) | EC50 [4] | EC50 (human CLDN6 (human) [5]) | Geom.Mean (human CLDN9 (human) [6]) | Geom.Mean (human CLDN6 (human) [7]) | Geom.Mean (human CLDN9 (human) [8]) | Geom.Mean (human CLDN6 (human) [9]) | EC50 (mouse CLDN6 (mouse) [10]) | EC50 (human CLDN6 (human) [11]) | FACS signal (human CLDN6 (human) [11]) | Geom.Mean (human CLDN9 (human) [12]) | EC50 (human CLDN6 (human) [13]) | EC50 (human CLDN6 (human) [14]) | Geom.Mean (human CLDN3 (human)) | Geom.Mean (human CLDN4 (human)) | CLDN6/CLDN9 ratio (human CLDN6 (human) [15]) | EC50 (mouse CLDN6 (mouse) [16]) | EC50 (mouse CLDN6 (mouse) [17]) | Substance |
| --- | --- | --- | --- | --- | --- | --- | --- | --- | --- | --- | --- | --- | --- | --- | --- | --- | --- | --- | --- | --- |
| 57.6 | 138000 µg/mL | 196 | 132 µg/mL | 194 µg/mL | 295 | 163 | 119 | 222 | 78.8 µg/mL | 323 µg/mL | 136 | 79.4 | 63700 µg/mL | 77.5 µg/mL | 168 | 158 | 1.6 | – | – | Human IgG (antibody) |
| – | – | – | – | – | – | – | – | – | – | – | – | – | – | – | – | – | – | 0.332 µg/mL | 0.332 µg/mL | IMAB027 |
